Measurements as given in PMC10250233, “RPA engages telomeric G-quadruplexes more effectively than CST”.

Experiments:
[1] = molecular target: T1, CST (CTC1-STN1-TEN1) (human, UniProt Q2NKJ3;Q9H668;Q86WV5 1-1217;1-368;1-123); assay: fluorescence anisotropy; 200 mM NaCl; FA: 200 mM NaCl, KCl or LiCl, 20 mM HEPES pH 7.4, 1 mM DTT, 22-25 C, 375 or 750 pM oligo, Kd,app +/- SEM; EMSA: 20 mM HEPES pH 7.4, 200 mM KCl, 1 nM 32P oligo; details: protein: recombinant, tags: 2xFLAG N-term on CTC1, 6xHis N-term on STN1 and TEN1, copies: 1;1;1, label: 5' fluorescein
T1 sequence (Q2NKJ3 whole entry, chain 1 of 3): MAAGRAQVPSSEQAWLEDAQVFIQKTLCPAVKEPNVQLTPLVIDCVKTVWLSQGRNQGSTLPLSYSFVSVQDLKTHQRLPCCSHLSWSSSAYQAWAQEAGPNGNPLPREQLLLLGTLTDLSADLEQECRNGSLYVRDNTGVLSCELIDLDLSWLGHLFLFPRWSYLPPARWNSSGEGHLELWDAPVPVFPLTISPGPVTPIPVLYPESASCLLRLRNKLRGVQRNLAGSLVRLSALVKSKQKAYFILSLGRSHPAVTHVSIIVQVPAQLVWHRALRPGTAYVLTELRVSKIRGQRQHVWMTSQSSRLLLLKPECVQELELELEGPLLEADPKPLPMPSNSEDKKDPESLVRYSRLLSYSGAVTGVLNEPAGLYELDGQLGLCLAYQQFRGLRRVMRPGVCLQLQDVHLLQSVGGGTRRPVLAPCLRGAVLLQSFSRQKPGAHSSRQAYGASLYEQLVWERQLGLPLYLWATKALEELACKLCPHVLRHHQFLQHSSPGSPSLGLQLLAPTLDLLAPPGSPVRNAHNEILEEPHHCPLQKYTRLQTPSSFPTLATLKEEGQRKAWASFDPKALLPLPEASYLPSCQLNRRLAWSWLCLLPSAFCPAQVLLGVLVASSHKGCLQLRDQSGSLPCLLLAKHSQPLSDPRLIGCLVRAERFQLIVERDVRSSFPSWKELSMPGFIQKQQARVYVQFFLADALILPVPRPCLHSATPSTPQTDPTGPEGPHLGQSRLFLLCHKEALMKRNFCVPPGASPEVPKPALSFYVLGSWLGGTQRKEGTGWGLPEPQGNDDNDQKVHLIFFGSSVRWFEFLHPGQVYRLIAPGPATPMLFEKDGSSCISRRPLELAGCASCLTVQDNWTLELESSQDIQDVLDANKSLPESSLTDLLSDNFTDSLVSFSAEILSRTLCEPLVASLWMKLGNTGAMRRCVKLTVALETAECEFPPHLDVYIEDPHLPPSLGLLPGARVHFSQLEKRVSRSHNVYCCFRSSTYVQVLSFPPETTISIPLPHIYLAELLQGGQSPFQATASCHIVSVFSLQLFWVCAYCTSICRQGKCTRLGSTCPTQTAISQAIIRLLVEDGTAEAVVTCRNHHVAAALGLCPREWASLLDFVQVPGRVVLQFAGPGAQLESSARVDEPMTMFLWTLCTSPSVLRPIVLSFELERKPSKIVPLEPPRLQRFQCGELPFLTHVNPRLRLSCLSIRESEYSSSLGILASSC
T1 sequence (Q9H668 whole entry, chain 2 of 3): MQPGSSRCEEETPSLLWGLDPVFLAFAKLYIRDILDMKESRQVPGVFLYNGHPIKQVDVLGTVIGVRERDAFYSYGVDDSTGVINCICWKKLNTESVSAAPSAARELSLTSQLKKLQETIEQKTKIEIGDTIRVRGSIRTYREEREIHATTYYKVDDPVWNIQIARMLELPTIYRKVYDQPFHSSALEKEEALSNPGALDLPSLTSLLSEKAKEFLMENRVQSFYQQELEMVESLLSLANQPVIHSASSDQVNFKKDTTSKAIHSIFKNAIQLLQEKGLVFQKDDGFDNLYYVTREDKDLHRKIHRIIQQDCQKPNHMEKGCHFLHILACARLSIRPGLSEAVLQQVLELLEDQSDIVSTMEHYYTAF
T1 sequence (Q86WV5 whole entry, chain 3 of 3): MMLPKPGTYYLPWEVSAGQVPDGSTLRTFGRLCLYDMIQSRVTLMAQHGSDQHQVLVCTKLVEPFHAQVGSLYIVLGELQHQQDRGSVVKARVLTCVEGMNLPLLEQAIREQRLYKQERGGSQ

[2] = molecular target: T1, CST (CTC1-STN1-TEN1); assay: fluorescence anisotropy; 200 mM LiCl; FA: 200 mM NaCl, KCl or LiCl, 20 mM HEPES pH 7.4, 1 mM DTT, 22-25 C, 375 or 750 pM oligo, Kd,app +/- SEM; EMSA: 20 mM HEPES pH 7.4, 200 mM KCl, 1 nM 32P oligo; details: protein: recombinant, tags: 2xFLAG N-term on CTC1, 6xHis N-term on STN1 and TEN1, copies: 1;1;1, label: 5' fluorescein, linear in LiCl
[3] = molecular target: T2, RPA WT (RPA70-RPA32-RPA14) (human, UniProt P27694;P15927;P35244 1-616;1-270;1-121); assay: as above; details: protein: recombinant, tags: 6xHis N-term on RPA70 and RPA14, copies: 1;1;1, label: 5' fluorescein, linear in LiCl
T2 sequence (P27694 whole entry, chain 1 of 3): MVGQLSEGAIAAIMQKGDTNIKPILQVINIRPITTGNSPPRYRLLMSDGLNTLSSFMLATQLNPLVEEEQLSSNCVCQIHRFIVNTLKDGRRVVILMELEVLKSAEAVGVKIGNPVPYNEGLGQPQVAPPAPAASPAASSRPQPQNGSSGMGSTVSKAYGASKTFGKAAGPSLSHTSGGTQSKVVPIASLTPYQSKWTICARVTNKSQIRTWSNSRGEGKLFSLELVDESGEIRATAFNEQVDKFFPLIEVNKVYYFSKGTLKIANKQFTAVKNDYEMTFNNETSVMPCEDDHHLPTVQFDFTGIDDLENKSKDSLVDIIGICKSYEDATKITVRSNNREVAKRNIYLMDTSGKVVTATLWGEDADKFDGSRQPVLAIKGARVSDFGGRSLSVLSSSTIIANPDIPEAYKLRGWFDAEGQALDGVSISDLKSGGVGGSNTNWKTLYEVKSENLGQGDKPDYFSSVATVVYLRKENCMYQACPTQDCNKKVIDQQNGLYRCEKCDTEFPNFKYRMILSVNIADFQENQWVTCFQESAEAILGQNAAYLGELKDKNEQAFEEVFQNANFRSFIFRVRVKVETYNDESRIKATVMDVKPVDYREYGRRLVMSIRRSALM
T2 sequence (P15927 whole entry, chain 2 of 3): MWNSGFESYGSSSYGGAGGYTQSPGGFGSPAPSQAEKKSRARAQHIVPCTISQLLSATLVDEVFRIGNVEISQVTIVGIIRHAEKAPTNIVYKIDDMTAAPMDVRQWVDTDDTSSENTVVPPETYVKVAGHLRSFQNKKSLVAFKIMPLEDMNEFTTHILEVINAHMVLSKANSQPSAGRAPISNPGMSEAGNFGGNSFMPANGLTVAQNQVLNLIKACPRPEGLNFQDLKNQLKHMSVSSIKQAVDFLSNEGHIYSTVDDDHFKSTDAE
T2 sequence (P35244 whole entry, chain 3 of 3): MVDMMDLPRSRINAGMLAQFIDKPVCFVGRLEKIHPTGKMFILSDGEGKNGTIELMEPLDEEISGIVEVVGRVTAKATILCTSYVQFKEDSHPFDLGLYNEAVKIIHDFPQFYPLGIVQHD

[4] = molecular target: T2, RPA WT (RPA70-RPA32-RPA14); assay: fluorescence anisotropy; 200 mM NaCl; FA: 200 mM NaCl, KCl or LiCl, 20 mM HEPES pH 7.4, 1 mM DTT, 22-25 C, 375 or 750 pM oligo, Kd,app +/- SEM; EMSA: 20 mM HEPES pH 7.4, 200 mM KCl, 1 nM 32P oligo; details: protein: recombinant, tags: 6xHis N-term on RPA70 and RPA14, copies: 1;1;1, label: 5' fluorescein, linear in LiCl
[5] = molecular target: T2, RPA WT (RPA70-RPA32-RPA14); assay: fluorescence anisotropy; 200 mM KCl; FA: 200 mM NaCl, KCl or LiCl, 20 mM HEPES pH 7.4, 1 mM DTT, 22-25 C, 375 or 750 pM oligo, Kd,app +/- SEM; EMSA: 20 mM HEPES pH 7.4, 200 mM KCl, 1 nM 32P oligo; details: protein: recombinant, tags: 6xHis N-term on RPA70 and RPA14, copies: 1;1;1, label: 5' fluorescein, linear in LiCl
[6] = molecular target: T1, CST (CTC1-STN1-TEN1); assay: as above; details: protein: recombinant, tags: 2xFLAG N-term on CTC1, 6xHis N-term on STN1 and TEN1, copies: 1;1;1, label: 5' fluorescein, linear in LiCl
[7] = intramolecular G4 at 3' end, 5' tail
[8] = parallel G4 in KCl (predominantly unimolecular)
[9] = intramolecular G4 at 5' end, 18 nt 3' tail

CCCTAACCCTAACCCTAACCCT (ssDNA) [C22]
Kd ([1]; linear): 184 ± 28 nM

TTGGGTTAGGGTTAGGGTTAGGGA (structured_DNA) [2GKU]
Kd ([2]; hybrid 1 G4 in KCl): 11.9 ± 1.2 nM

TAGGGTTAGGGTTAGGGTTAGGGTT (structured_DNA) [2JSL]
Kd ([2]; hybrid 2 G4 in KCl): 8.3 ± 0.6 nM

GGGTAGGGAGCGGGAGAGGG (structured_DNA) [6GZN]
Kd ([2]; antiparallel G4 in KCl): 1.1 ± 0.3 nM

AGTGTGAGTGTGAGTGTTAGGGTTAGGGTTAGGGTTAGGG (structured_DNA) [Tel40 3' G4]
Kd [3, 7]: 0.68 ± 0.16 nM | Kd [2, 7]: 1.09 ± 0.1 nM | Kd [4, 7]: 0.4 ± 0.08 nM | Kd ([1]; intramolecular G4 at 3' end, 5' tail, linear in LiCl): 2.3 ± 0.4 nM | Kd [5, 7]: 0.52 ± 0.11 nM | Kd [6, 7]: 3.4 ± 0.5 nM

CGGGGCGGGCCTTGGGCGGGGT (structured_DNA) [2M27]
Kd [2, 8]: 10.8 ± 0.2 nM | Kd [6, 8]: 13.3 ± 0.9 nM

AGTGTGAGTTAGGGTTAGGGTTAGGGTTAGGGTGAGTGTG (structured_DNA) [Tel40 Middle G4]
Kd ([3]; intramolecular G4 in middle): 0.61 ± 0.13 nM | Kd ([2]; intramolecular G4 in middle): 1.94 ± 0.16 nM | Kd ([4]; intramolecular G4 in middle): 0.28 ± 0.03 nM | Kd ([1]; intramolecular G4 in middle, linear in LiCl): 1.04 ± 0.21 nM | Kd ([5]; intramolecular G4 in middle): 0.46 ± 0.05 nM | Kd ([6]; intramolecular G4 in middle): 4.4 ± 0.3 nM

AGGGTTAGGGTTAGGGTTAGGGTGAGTGTGAGTGTGAGTG (structured_DNA) [Tel40 5' G4]
Kd [3, 9]: 0.82 ± 0.15 nM | Kd [2, 9]: 1.53 ± 0.17 nM | Kd [4, 9]: 0.78 ± 0.08 nM | Kd ([1]; intramolecular G4 at 5' end, 18 nt 3' tail, linear in LiCl): 1.47 ± 0.23 nM | Kd [5, 9]: 0.85 ± 0.21 nM

AGGGCTAGGGCTAGGGCTAGGG (structured_DNA) [2KM3]
Kd ([2]; antiparallel G4 in KCl): 4.5 ± 0.3 nM

TAGGGAGGGTAGGGAGGGT (structured_DNA) [2LBY]
Kd ([2]; parallel G4 in KCl): 11.5 ± 1.3 nM | Kd ([6]; parallel G4 in KCl): 26.5 ± 1.5 nM
